Experimental data as given in US12698507B2, “Methods and compositions for conferring and/or enhancing herbicide tolerance using protoporphyrinogen IX oxidase of various cyanobacteria or variant thereof” (FarmHannong Co., Ltd., priority 2019, dated 2026).

B1: CyPPO19 V165C + V305M + F360I: variant of CyPPO19 PPO protein (SEQ ID NO: 1) (protein)
chain: MSEVDVAIVGGGLSGLSLAWRLQQSAPQYSVVLLEASDRLGGNITTQTAEGFVWELGPNSFAPTPALLQLIAEVGLQSELIRGDRHLPRYIYWRGQLYPLQPTRPLALATSNLLSPWGKVRAALGALGFVPPYLGSGDESVNSFFRRHLGQEVAERLVAPFVSGCYAGDPQQLSAAAAFRRIAQLEKLGGGLIAGALHLRRQQAPKPKPPTSVQMRPGELGSFKEGLAALPRAIAQQLKAPIHLQTPVQEITPDPKGGYLLRSGEQTWRARSVVLATPAYQTAELVAPFQPAIARVLATIPYPTMACVVLAYPAGLGRSVRPGFGVLIPRSQGIRTLGTIWSSCLFPQRTPAGWQVFTSIIGGATDPDLASLSEEAIVQQVQQDLNRLLDLPAAKARLLGMKVWRRAIPQYMVGYPEQWQQVTHALSQTPGLFLCSNYAEGVALGDRVEHGNRTAAAVAAYLSGGQP
modifications: Synthetic_PPO of Thermosynechococcus elongatus PKUAC-SCTE542 (comprising GenBank No. CP032152.1)
B2: CyPPO19 V165C + L327T + F360V: variant of CyPPO19 PPO protein (SEQ ID NO: 1) (protein)
chain: MSEVDVAIVGGGLSGLSLAWRLQQSAPQYSVVLLEASDRLGGNITTQTAEGFVWELGPNSFAPTPALLQLIAEVGLQSELIRGDRHLPRYIYWRGQLYPLQPTRPLALATSNLLSPWGKVRAALGALGFVPPYLGSGDESVNSFFRRHLGQEVAERLVAPFVSGCYAGDPQQLSAAAAFRRIAQLEKLGGGLIAGALHLRRQQAPKPKPPTSVQMRPGELGSFKEGLAALPRAIAQQLKAPIHLQTPVQEITPDPKGGYLLRSGEQTWRARSVVLATPAYQTAELVAPFQPAIARVLATIPYPTVACVVLAYPAGLGRSVRPGFGVTIPRSQGIRTLGTIWSSCLFPQRTPAGWQVFTSVIGGATDPDLASLSEEAIVQQVQQDLNRLLDLPAAKARLLGMKVWRRAIPQYMVGYPEQWQQVTHALSQTPGLFLCSNYAEGVALGDRVEHGNRTAAAVAAYLSGGQP
modifications: Synthetic_PPO of Thermosynechococcus elongatus PKUAC-SCTE542 (comprising GenBank No. CP032152.1)
B3: CyPPO19 V165S + V305L + F360L: variant of CyPPO19 PPO protein (SEQ ID NO: 1) (protein)
chain: MSEVDVAIVGGGLSGLSLAWRLQQSAPQYSVVLLEASDRLGGNITTQTAEGFVWELGPNSFAPTPALLQLIAEVGLQSELIRGDRHLPRYIYWRGQLYPLQPTRPLALATSNLLSPWGKVRAALGALGFVPPYLGSGDESVNSFFRRHLGQEVAERLVAPFVSGSYAGDPQQLSAAAAFRRIAQLEKLGGGLIAGALHLRRQQAPKPKPPTSVQMRPGELGSFKEGLAALPRAIAQQLKAPIHLQTPVQEITPDPKGGYLLRSGEQTWRARSVVLATPAYQTAELVAPFQPAIARVLATIPYPTLACVVLAYPAGLGRSVRPGFGVLIPRSQGIRTLGTIWSSCLFPQRTPAGWQVFTSLIGGATDPDLASLSEEAIVQQVQQDLNRLLDLPAAKARLLGMKVWRRAIPQYMVGYPEQWQQVTHALSQTPGLFLCSNYAEGVALGDRVEHGNRTAAAVAAYLSGGQP
modifications: Synthetic_PPO of Thermosynechococcus elongatus PKUAC-SCTE542 (comprising GenBank No. CP032152.1)
B4: CyPPO19 V165C + V305M + F360V: variant of CyPPO19 PPO protein (SEQ ID NO: 1) (protein)
chain: MSEVDVAIVGGGLSGLSLAWRLQQSAPQYSVVLLEASDRLGGNITTQTAEGFVWELGPNSFAPTPALLQLIAEVGLQSELIRGDRHLPRYIYWRGQLYPLQPTRPLALATSNLLSPWGKVRAALGALGFVPPYLGSGDESVNSFFRRHLGQEVAERLVAPFVSGCYAGDPQQLSAAAAFRRIAQLEKLGGGLIAGALHLRRQQAPKPKPPTSVQMRPGELGSFKEGLAALPRAIAQQLKAPIHLQTPVQEITPDPKGGYLLRSGEQTWRARSVVLATPAYQTAELVAPFQPAIARVLATIPYPTMACVVLAYPAGLGRSVRPGFGVLIPRSQGIRTLGTIWSSCLFPQRTPAGWQVFTSVIGGATDPDLASLSEEAIVQQVQQDLNRLLDLPAAKARLLGMKVWRRAIPQYMVGYPEQWQQVTHALSQTPGLFLCSNYAEGVALGDRVEHGNRTAAAVAAYLSGGQP
modifications: Synthetic_PPO of Thermosynechococcus elongatus PKUAC-SCTE542 (comprising GenBank No. CP032152.1)
B5: CyPPO19 V165C + L327T + F360I: variant of CyPPO19 PPO protein (SEQ ID NO: 1) (protein)
chain: MSEVDVAIVGGGLSGLSLAWRLQQSAPQYSVVLLEASDRLGGNITTQTAEGFVWELGPNSFAPTPALLQLIAEVGLQSELIRGDRHLPRYIYWRGQLYPLQPTRPLALATSNLLSPWGKVRAALGALGFVPPYLGSGDESVNSFFRRHLGQEVAERLVAPFVSGCYAGDPQQLSAAAAFRRIAQLEKLGGGLIAGALHLRRQQAPKPKPPTSVQMRPGELGSFKEGLAALPRAIAQQLKAPIHLQTPVQEITPDPKGGYLLRSGEQTWRARSVVLATPAYQTAELVAPFQPAIARVLATIPYPTVACVVLAYPAGLGRSVRPGFGVTIPRSQGIRTLGTIWSSCLFPQRTPAGWQVFTSIIGGATDPDLASLSEEAIVQQVQQDLNRLLDLPAAKARLLGMKVWRRAIPQYMVGYPEQWQQVTHALSQTPGLFLCSNYAEGVALGDRVEHGNRTAAAVAAYLSGGQP
modifications: Synthetic_PPO of Thermosynechococcus elongatus PKUAC-SCTE542 (comprising GenBank No. CP032152.1)

What follows are molecules tested on PPO-deficient BT3 E. coli (ΔPPO) (assay: PPO-inhibiting herbicide tolerance test of PPO variants in E. coli (growth on herbicide-containing LB agar)). Details: CyPPO19 variants in BT3 (ΔPPO) E. coli; LB agar with 0 to 2,000 μM herbicide, 37° C., dark, 16-20 hours.
Type: cell-based
Text: To enhance the PPO-inhibiting herbicide resistance of CyPPO19 and CyPPO18, PPO variant genes of the above example 2 were constructed. They were transformed to BT3 (ΔPPO) strain which is deficient of PPO activity and cultured in LB media with PPO-inhibiting herbicide, thereby examining whether growth of transformed BT3 was not inhibited.
BT3 competent cells were transformed with the pET303-CyPPO19 (wild type), pET303-CyPPO18 (wild type) plasmids, and those with a mutation(s) constructed (refer to example 2) via heat shock method, and were cultured in LB agar media containing ampicillin.
Single colony transformed with each CyPPO gene was cultured in 3 mL of LB broth (LPSS) containing ampicillin for more than 12 hours, and then was subcultured in LB broth until absorbance (OD600) reached 0.5 to 1. Then, it was diluted with LB broth to OD600=0.5. Again, the diluted solution was serially diluted 4 times by a factor of one tenth.
The LB agar media (LB 25 g/L, Bacto agar 12 g/L) containing ampicillin (100 μg/mL) and 0 to 2,000 μM of various herbicides were prepared. Herbicide solution stocks were all prepared in DMSO.
Then, 10 μL of each diluted solution of E. coli was dropped on the plate and cultured at 37° C. under dark for 16-20 hours. PPO-inhibiting herbicide resistance was evaluated with the extent of E. coli growth containing each gene was observed.
The extent of herbicide resistance was evaluated by the relative growth of variants to that of wild type, and listed in Tables 9 and 10 and FIGS. 3 to 32.
In Tables 9 and 10, the tolerance level of variants showing equivalent resistance to wild type was presented as ‘−’, and was done as ‘+’ per each 10-fold resistance until ‘+++++’ as maximal resistance.
FIGS. 3 to 30 and FIGS. 31 and 32 show the transformed E. coli growth result of CyPPO19 WT and its variants and CyPPO18 WT and its variants, respectively. The concentrations of herbicides were written above the photographs of tolerance test. A 10-fold dilution series of spots were shown from OD600=0.5 of the leftmost spot to OD600=0.00005 of the rightmost one.

Row | Molecule | tolerance level relative to wild type, Carfentrazone | tolerance level relative to wild type, Flumioxazin | tolerance level relative to wild type, Fomesafen | tolerance level relative to wild type, Oxyfluorfen | tolerance level relative to wild type, Saflufenacil | tolerance level relative to wild type, Sulfentrazone | tolerance level relative to wild type, Tiafenacil
1 | B1 | + (‘+’ per each 10-fold resistance) | +++++ (until ‘+++++’ as maximal resistance) | ++ (‘+’ per each 10-fold resistance) | ++ (‘+’ per each 10-fold resistance) | +++++ (until ‘+++++’ as maximal resistance) | +++ (‘+’ per each 10-fold resistance) | +++++ (until ‘+++++’ as maximal resistance)
2 | B2 | + (‘+’ per each 10-fold resistance) | +++++ (until ‘+++++’ as maximal resistance) | + (‘+’ per each 10-fold resistance) | +++ (‘+’ per each 10-fold resistance) | ++++ (‘+’ per each 10-fold resistance) | +++++ (until ‘+++++’ as maximal resistance) | +++++ (until ‘+++++’ as maximal resistance)
3 | B3 | + (‘+’ per each 10-fold resistance) | +++++ (until ‘+++++’ as maximal resistance) | +++ (‘+’ per each 10-fold resistance) | +++ (‘+’ per each 10-fold resistance) | +++++ (until ‘+++++’ as maximal resistance) | +++++ (until ‘+++++’ as maximal resistance) | +++++ (until ‘+++++’ as maximal resistance)
4 | B4 | + (‘+’ per each 10-fold resistance) | +++++ (until ‘+++++’ as maximal resistance) | ++ (‘+’ per each 10-fold resistance) | +++ (‘+’ per each 10-fold resistance) | +++++ (until ‘+++++’ as maximal resistance) | ++++ (‘+’ per each 10-fold resistance) | +++++ (until ‘+++++’ as maximal resistance)
5 | B5 | + (‘+’ per each 10-fold resistance) | +++++ (until ‘+++++’ as maximal resistance) | ++ (‘+’ per each 10-fold resistance) | +++ (‘+’ per each 10-fold resistance) | ++++ (‘+’ per each 10-fold resistance) | +++++ (until ‘+++++’ as maximal resistance) | +++++ (until ‘+++++’ as maximal resistance)
